The values below come from patent US8580549B2, “Esterases for separating plastics” (Henkel KGaA, priority 2005, dated 2013).

What is called kcat is the maximal rate divided by the concentration of active sites.

What all share (type): biochemical
Data set [1] can be described thus: Esterase activity by hydrolysis of bis-(p-methylbenzoic acid) ester of ethylene glycol (titration). Conditions: titrimetric, 30° C., tris/HCl pH 9.0; for Specific Activity / vMax: mean of three measurements. As to the method: 2.4.2 Determination of the Enzymatic Activity
The cleavage of the bis-(p-methylbenzoic acid) ester of ethylene glycol catalyzed by the inventive enzymes affords 2 equivalents of 4-methylbenzoic acid and ethylene glycol (see FIG. 2).
For the preparation of the enzyme assay, the desired amount of substrate was mixed with 0.5 g Triton X100 and dissolved with heating in 50 mL ethanol (99%, denatured). Once all the substrate was dissolved, the solution was added to 50 mL buffer (2 mM tris/HCl buffer; pH 9.0) with intense stirring by Ultra-Turrax. This solution was then stirred at room temperature for at least 12 hours in order to remove a large part of the added ethanol. The thus-prepared substrate solution was immediately titrated. The reaction buffer was pre-incubated at 30° C. for 10 minutes.
Different final concentrations (0.67 mM to 50 mM) were used in a total reaction volume of 2 mL including enzyme. After addition of the enzyme, the NaOH consumption (concentration determination by triple titration with oxalic acid) with the titration apparatus 702 SAT (METROHM Ltd., Switzerland)) at a reaction temperature of 30° C. was plotted. One unit is defined as the enzyme activity that releases 1 μmol acid per minute.
In this and the subsequent examples, the following abbreviations are used for the tested esterases: enzyme according to Seq ID No. 12 (pNB-Est13), enzyme according to Seq ID No. 2 (pNB-Est19), enzyme according to Seq ID No. 1 (pNB-Est17). The data obtained for the cited esterases in Table 2 were determined by titrimetric measurements and represent mean values from: three independent measurements with a relative standard deviation of less than 5%.

Data set [2] in a line: Substrate specificity to para-nitrophenyl esters: p-NP-stearate. Conditions: p-NP-stearate 0.8 mM, phosphate buffer pH 8, room temperature, 410 nm. The method, then:
(§1) For the determination of chain length specificities of the investigated esterases, p-nitrophenyl esters with different chain lengths were used as the substrate for the spectroscopic measurements of activity. To the p-nitrophenyl esters dissolved in 10 mL isopropanol were added 90 mL phosphate buffer (pH 8, disodium hydrogen phosphate and potassium dihydrogen phosphate). The final concentration of the substrate was 0.8 mM. Each 990 μL buffer-substrate mixture was mixed with 10 μL of the enzyme sample and incubated at room temperature for one minute. The increase in absorption at 410 nm was then measured (UV MC^2, SAFAS, Monaco). The enzyme activity was calculated using a molar extinction coefficient of 17100 [M^−1cm^−1], wherein 1 unit was defined as the quantity of enzyme that released 1 μmol p-nitrophenol per minute.
(§2) The data in Table 3 represent mean values from three independent measurements with a relative standard deviation of less than 10%.

The nature of data set [3]: Substrate specificity to para-nitrophenyl esters: p-NP-caprate. To be noted: p-NP-caprate 0.8 mM, phosphate buffer pH 8, room temperature, 410 nm. The method, then:
as §1, §2

Data set [4] can be described thus: Titrimetric Michaelis-Menten kinetics, hydrolysis of dimethyl isophthalate. Conditions: substrate DMIP; for kcat: assumes added enzyme = active enzyme; for vMax: titrimetric, 30° C., pH 9. The method, then:
(§3) The enzyme activities of the esterases were measured with the titration apparatus 702 SAT (METROHM Ltd., Switzerland) for various substrates of the phthalate family (FIG. 4). The phthalates were dissolved in diethyl ether with 0.5 g Triton X100. The diethyl ether was then removed under a stream of nitrogen. 50 ml buffer (2 mM Tris/HCl, pH 9) was added, homogenized by ultrasound and used in different final concentrations (0.3 mM to 100 mM) in a total reaction volume of 2 mL (including enzyme). The reaction buffer was pre-incubated at 30° C. for 10 minutes. After addition of the enzyme, the NaOH consumption (concentration determination by triple titration with oxalic acid) at a reaction temperature of 30° C. was plotted. One unit is defined as the enzyme activity that releases 1 μmol acid per minute.
(§4) Titrimetric measurements were carried out to determine the kinetic constants vmax, kM, kcat and kcat/kM of the three para-nitrobenzyl esterases pNB-Est17, pNB-Est19 and pNB-Est13 towards different phthalates and terephthalates. The enzyme activities were determined for different substrate concentrations and evaluated according to MICHAELIS-MENTEN (see FIGS. 5 to 7). The measured kM- and vmax values and the added enzyme concentrations were used to calculate the kinetic constants (kcat and k2) and the catalytic efficiency (kcat/kM)—under the assumption that the added enzyme concentration was the same as the concentration of the active enzyme.
(§5) The data in FIGS. 5 to 7 and Tables 5 to 7 represent mean values from three independent titrimetric measurements with a relative standard deviation of less than 5%. The calculation of kcat and kcat/kM was based on the assumption that the added enzyme concentration was the same as the concentration of the active enzyme.

Data set [5] in a line: Titrimetric Michaelis-Menten kinetics, hydrolysis of dimethyl terephthalate. Conditions: substrate DMT; for kcat: assumes added enzyme = active enzyme; for vMax: titrimetric, 30° C., pH 9. The method, then:
as §3, §4, §5

A short description of data set [6]: Substrate specificity to para-nitrophenyl esters: p-NP-laurate. To be noted: p-NP-laurate 0.8 mM, phosphate buffer pH 8, room temperature, 410 nm. The method, then: as §1, §2
Data set [7] in a line: Substrate specificity to para-nitrophenyl esters: p-NP-caproate. To be noted: p-NP-caproate 0.8 mM, phosphate buffer pH 8, room temperature, 410 nm. As to the method:
as §1, §2

Data set [8] can be described thus: Titrimetric Michaelis-Menten kinetics, hydrolysis of diethyl phthalate. Conditions: substrate DEP; for kcat: assumes added enzyme = active enzyme; for vMax: titrimetric, 30° C., pH 9. As to the method:
as §3, §4, §5

A short description of data set [9]: Titrimetric Michaelis-Menten kinetics, hydrolysis of diethyl terephthalate. Conditions: substrate DET; for kcat: assumes added enzyme = active enzyme; for vMax: titrimetric, 30° C., pH 9. As to the method:
as §3, §4, §5

Data set [10] in a line: Substrate specificity to para-nitrophenyl esters: p-NP-butyrate. Conditions: p-NP-butyrate 0.8 mM, phosphate buffer pH 8, room temperature, 410 nm. The method, then:
as §1, §2

Data set [11] in a line: Substrate specificity to para-nitrophenyl esters: p-NP-caprylate. Conditions: p-NP-caprylate 0.8 mM, phosphate buffer pH 8, room temperature, 410 nm. The method, then:
as §1, §2

Data set [12] in a line: Substrate specificity to para-nitrophenyl esters: p-NP-myristate. Conditions: p-NP-myristate 0.8 mM, phosphate buffer pH 8, room temperature, 410 nm. As to the method:
as §1, §2

Data set [13] is described as follows: Titrimetric Michaelis-Menten kinetics, hydrolysis of dibutyl phthalate. Conditions: substrate DBP; for kcat: assumes added enzyme = active enzyme; for vMax: titrimetric, 30° C., pH 9. The method, then:
as §3, §4, §5

Data set [14] in a line: Substrate specificity to para-nitrophenyl esters: p-NP-palmitate. To be noted: p-NP-palmitate 0.8 mM, phosphate buffer pH 8, room temperature, 410 nm. The method, then:
as §1, §2

A short description of data set [15]: Titrimetric Michaelis-Menten kinetics, hydrolysis of dimethyl phthalate. To be noted: substrate DMP; for kcat: assumes added enzyme = active enzyme; for vMax: titrimetric, 30° C., pH 9. As to the method:
as §3, §4, §5

B1: pNB-Est17: para-nitrobenzyl esterase, enzyme according to Seq ID No. 1, from Bacillus subtilis (17A1), 489 amino acids (protein, listed as Bacillus subtilis)
chain: MTHQIVTTQYGKVKGTTENGVHKWKGIPYAKPPVGQWRFKAPEPPEVWEDVLDATAYGPICPQPSDLLSLSYTELPRQSEDCLYVNVFAPDTPSQNLPVMVWIHGGAFYLGAGSEPLYDGSKLAAQGEVIVVTLNYRLGPFGFLHLSSFDEAYSDNLGLLDQAAALKWVRENISAFGGDPDNVTVFGESAGGMSIAALLAMPAAKGLFQKAIMESGASRTMTKEQAASTSAAFLQVLGINEGQLDKLHTVSAEDLLKAADQLRIAEKENIFQLFFQPALDPKTLPAEPEKAISEGAASGIPLLIGTTRDEGYLFFTPDSDVHSQETLDAALEYLLGKPLAEKAADLYPRSLESQIHMMTDLLFWRPAVAYASAQSHYAPVWMYRFDWHPKKPPYNKAFHALELPFVFGNLDGLERMAKAEITDEVKQLSHTIQSAWITFAKTGNPSTEAVNWPTYHEETRETLILDSEITIENDPESEKRQKLFPSKGE
As to B1, the catalytic constant (kcat) in data set [1] stood at 5177 s⁻¹; in [4], 38880 s⁻¹; in [5], 60028 s⁻¹; in [8], 31065 s⁻¹; in data set [9], 90998 s⁻¹; in data set [13] it was 155676 s⁻¹. In addition, the turnover number (kcat) in data set [15] was 45672 s⁻¹. Further, the “Specific Activity” value is 1.60 µmol/min/mg in data set [1]; <1 U/mg in data set [2]; 10.2 U/mg in data set [3]; 3.4 U/mg in data set [6]; 102.7 U/mg in data set [7]; 196.3 U/mg in [10]. Also, the entries for the “Specific Activity” value in [11], in data set [12] and in [14] were 73.2 U/mg, <1 U/mg and <1 U/mg, respectively. Besides, the vMax in [1] was found to be 0.642 µmol/min; in data set [4], 11.99 U/mg; in data set [5], 18.52 U/mg; in [8], 9.57 U/mg; in [9], 28.06 U/mg; in data set [13] it was 48.03 U/mg. The vMax in data set [15] stood at 14.09 U/mg.

B2: pNB-Est19: para-nitrobenzyl esterase, enzyme according to Seq ID No. 2, from Bacillus licheniformis (19C5), 489 amino acids (protein, listed as Bacillus licheniformis)
chain: B1 chain
For B2, the turnover number (kcat) stood at 3838 s⁻¹ in data set [1]; 27637 s⁻¹ in data set [4]; 50718 s⁻¹ in [5]; 23265 s⁻¹ in data set [8]; 99411 s⁻¹ in data set [9]; 50970 s⁻¹ in [15]. Besides, the “Specific Activity” value is 1.19 µmol/min/mg in [1]; <1 U/mg in [2]; 3.9 U/mg in data set [3]; 4.0 U/mg in [6]; 249.6 U/mg in data set [7]; 234.8 U/mg in data set [10]. The “Specific Activity” value in [11] is on record as 83.6 U/mg; in data set [12] it was 1.3 U/mg; in [14] it was <1 U/mg. Also, the vMax in [1] was 0.385 µmol/min; in [4], 8.55 U/mg; in data set [5], 15.69 U/mg; in data set [8], 7.20 U/mg; in data set [9], 30.79 U/mg; in [13], 40.69 U/mg. This molecule showed a vMax in [15] of 15.76 U/mg.

B3: pNB-Est13: para-nitrobenzyl esterase, enzyme according to Seq ID No. 12, Bacillus licheniformis DSM13 (gi 52346943) (protein, listed as Bacillus licheniformis)
chain: MYDTTVETRFGKLKGRAENGVRIFKGVPYAKPPVGDLRFREPQRMEAWEGELDAFQFGPVCPQPDGVLPESAGVQKSEDCLYLNVYAPEEADGDLPVMVWIHGGAFYRGAGSEPLYDGTQLAKQGKVIVVTINYRLGPFGFLHLSSIDDSYSSNLGLLDQIAALEWVKDNIAFFGGDRHHITVFGESAGSMSIASLLAMPKAKGLFQQAIMESGASATMSDKLAKAAAERFLRILDIDHHHLERLHDVSDQELLEAADQLRTLMGENIFELIFLPALDEKTLPLKPEVAVAKGAAKEINLLIGTNRDEGVLFFPSDSDLLPESKINEILEEYMGKEAAEAASSLYPRSLEGHVDMMTDLIFWHPSVVFASAQSRYASVFMYRFDWHADSEQPPFNKAAHGLEIPFVFGNMDILEQLTGTKAGEEAQLLAEQIQAAWVSFARSGNPSTDDVSWPDYDEDSRKTLIFDQEVAVESDPYSDKRKMLTAPNPQI
Turning to B3, the kcat amounted to 9358 s⁻¹ in [1]; 90267 s⁻¹ in [4]; 14784 s⁻¹ in data set [5]; 10468 s⁻¹ in data set [8]; 12574 s⁻¹ in data set [9]; 9356 s⁻¹ in data set [13]. Also, the turnover number (kcat) in [15] came out at 29735 s⁻¹. Also, the “Specific Activity” value in [1] was 2.87 µmol/min/mg; in [2], <1 U/mg; in [3], 4.4 U/mg; in data set [6], 1.3 U/mg; in data set [7], 50.5 U/mg; in data set [10], 22.4 U/mg. Moreover, the results for the “Specific Activity” value in data set [11], in data set [12] and in [14] were 13.0 U/mg, <1 U/mg and <1 U/mg, respectively. Besides, the vMax in data set [1] worked out at 1.801 µmol/min; in data set [4] it was 27.67 U/mg; in data set [5], 4.53 U/mg; in data set [8], 3.21 U/mg; in data set [9], 3.57 U/mg; in data set [13], 2.87 U/mg. This molecule displayed a vMax in data set [15] of 9.11 U/mg.
